Results on one molecule are retold here after patent US20160109459A1, “Compositions And Methods For Heparan Sulfate As A Biomarker For Transplant Rejection” (Duke University, priority 2012, published 2016).

In this test the target is T1, human TLR4 (Homo sapiens, UniProt O00206).
T1 construct: expressed in transfected cells; host or cells: HEK 293 (gift from Dr. Michael Fessler, NIEHS)
Kind of test: IL-8 production by ELISA in HEK TLR4-MD2-CD14 cells. Type of test: cell-based. As to conditions: HS pre-treated with heparanase. (In general: An ELISA detects its analyte on a solid surface through an enzyme-linked reagent.)

T1 sequence (O00206 24-839): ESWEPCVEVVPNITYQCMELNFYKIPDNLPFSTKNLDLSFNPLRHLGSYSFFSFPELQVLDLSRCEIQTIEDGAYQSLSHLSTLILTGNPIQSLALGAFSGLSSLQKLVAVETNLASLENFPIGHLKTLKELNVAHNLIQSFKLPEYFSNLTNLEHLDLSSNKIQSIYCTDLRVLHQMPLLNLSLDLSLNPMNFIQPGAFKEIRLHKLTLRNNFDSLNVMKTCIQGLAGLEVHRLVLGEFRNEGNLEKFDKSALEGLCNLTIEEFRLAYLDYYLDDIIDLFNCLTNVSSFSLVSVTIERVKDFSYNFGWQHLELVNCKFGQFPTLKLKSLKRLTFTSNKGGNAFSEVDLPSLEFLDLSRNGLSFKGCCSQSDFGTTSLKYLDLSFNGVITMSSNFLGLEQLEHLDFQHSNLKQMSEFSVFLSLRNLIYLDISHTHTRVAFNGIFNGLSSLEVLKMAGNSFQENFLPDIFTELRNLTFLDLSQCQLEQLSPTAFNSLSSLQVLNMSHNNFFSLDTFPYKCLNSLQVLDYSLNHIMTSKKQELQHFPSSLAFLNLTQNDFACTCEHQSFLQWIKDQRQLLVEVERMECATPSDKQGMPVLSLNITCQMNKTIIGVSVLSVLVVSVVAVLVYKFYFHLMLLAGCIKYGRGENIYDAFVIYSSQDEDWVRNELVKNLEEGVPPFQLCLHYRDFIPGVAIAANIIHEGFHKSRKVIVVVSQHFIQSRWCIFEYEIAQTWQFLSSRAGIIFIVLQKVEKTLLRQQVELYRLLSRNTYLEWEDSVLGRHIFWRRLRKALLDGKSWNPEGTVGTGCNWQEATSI
T1 sequence (Q9Y6Y9 17-160 partner limits assumed): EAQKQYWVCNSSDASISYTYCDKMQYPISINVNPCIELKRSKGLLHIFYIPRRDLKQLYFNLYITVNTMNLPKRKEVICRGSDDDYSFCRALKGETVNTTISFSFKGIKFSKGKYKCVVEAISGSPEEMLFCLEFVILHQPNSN
Description: HEK cell lines stably expressing CD14 and MD2 alone (HEK MD2-CD14), or co-expressed with human TLR2 (HEK TLR2-MD2-CD14) or human TLR4 (HEK TLR4-MD2-CD14) were transfected with a plasmid encoding firefly luciferase (F) under control of the NF-κB promoter along with a plasmid expressing Renilla luciferase (R) under control of the thymidine kinase promoter as a transfection control. Cell lines were cultured for 6 hours with media alone, LPS (100 ng/mL), HS (100 μg/mL), or Pam3CSK4 (2 μg/mL). […] FIG. 5B is a graph showing results supernatants analyzed for IL-8 production by ELISA. […] Experiments were performed in triplicate or quadruplicate. Results are representative of two to three independent experiments.
HEK 293 cell lines co-expressing human CD14, MD2 and TLR4 or TLR2 were a kind gift from Dr. Michael Fessler (NIEHS, Research Triangle Park, N.C., USA). […]
Thus, to determine whether if TLR4 was sufficient for HS activity, the ability of HS to activate human epithelial kidney (HEK) cell lines stably transfected to express human TLR4 or human TLR2 in addition to the co-receptors CD14 and MD2 was tested. […] The ratio of luminescence produced by firefly luciferase to Renilla luciferase (F/R) was then measured in response to media alone, LPS, HS, and Pam3CSK4. The production of IL-8, which is downstream of NF-κB activation, by ELISA was also measured. […]

B1: Heparanase: heparinase III from Flavobacterium heparinum (Sigma), enzyme that degrades heparan sulfate (protein, UniProt Q59289 25-659, looked up)
Heparin-sulfate lyase: QSSSITRKDFDHINLEYSGLEKVNKAVAAGNYDDAAKALLAYYREKSKAREPDFSNAEKPADIRQPIDKVTREMADKALVHQFQPHKGYGYFDYGKDINWQMWPVKDNEVRWQLHRVKWWQAMALVYHATGDEKYAREWVYQYSDWARKNPLGLSQDNDKFVWRPLEVSDRVQSLPPTFSLFVNSPAFTPAFLMEFLNSYHQQADYLSTHYAEQGNHRLFEAQRNLFAGVSFPEFKDSPRWRQTGISVLNTEIKKQVYADGMQFELSPIYHVAAIDIFLKAYGSAKRVNLEKEFPQSYVQTVENMIMALISISLPDYNTPMFGDSWITDKNFRMAQFASWARVFPANQAIKYFATDGKQGKAPNFLSKALSNAGFYTFRSGWDKNATVMVLKASPPGEFHAQPDNGTFELFIKGRNFTPDAGVFVYSGDEAIMKLRNWYRQTRIHSTLTLDNQNMVITKARQNKWETGNNLDVLTYTNPSYPNLDHQRSVLFINKKYFLVIDRAIGEATGNLGVHWQLKEDSNPVFDKTKNRVYTTYRDGNNLMIQSLNADRTSLNEEEGKVSYVYNKELKRPAFVFEKPKKNAGTQNFVSIVYPYDGQKAPEISIRENKGNDFEKGKLNLTLTINGKQQLVLVP
For B1, the “effect of pre-treatment on HS stimulation of IL-8 expression” value was “significantly reduced”.
